Variants at the floor of the assay were thinned out.
Columns and labels:
biotinyl-Phe-oxazolone = assay: self-aminoacylation, catalytic enhancement (BFO) (fold over background); higher = more active; k-Seq, kA / k0A0; sequences stand for … in GGGAAUGGAUCCACAUCUACGAAUUC…UUCACUGCAGACUUGACGAAGCUG
Method in brief: (§1)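 Mutagenized RNA pools with a 21-nt variable region (0.43 μM) were reacted with each biotinyl-aminoacyl-oxazolone at 2–1250 μM for 90 minutes at room temperature, in 50 μL HEPES/NaCl/KCl/MgCl2/CaCl2 buffer containing 5% acetonitrile at pH 6.9–7.0. RNA captured on streptavidin was quantified by triplicate qPCR and by Illumina sequencing. The fraction reacted for each sequence was fit to a pseudo-first-order model with bootstrapping, and catalytic enhancement is the median kA divided by the uncatalyzed rate, taken as the low-activity peak of a bimodal Gaussian fit.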

biotinyl-Ile-oxazolone = assay: self-aminoacylation, catalytic enhancement (BIO) (fold over background); higher = more active; k-Seq, kA / k0A0; sequences stand for … in GGGAAUGGAUCCACAUCUACGAAUUC…UUCACUGCAGACUUGACGAAGCUG
Method in brief: as §1

biotinyl-Met-oxazolone = assay: self-aminoacylation, catalytic enhancement (BMO) (fold over background); higher = more active; k-Seq, kA / k0A0; sequences stand for … in GGGAAUGGAUCCACAUCUACGAAUUC…UUCACUGCAGACUUGACGAAGCUG
Method in brief: as §1

biotinyl-Val-oxazolone = assay: self-aminoacylation, catalytic enhancement (BVO) (fold over background); higher = more active; k-Seq, kA / k0A0; sequences stand for … in GGGAAUGGAUCCACAUCUACGAAUUC…UUCACUGCAGACUUGACGAAGCUG
Method in brief: as §1

biotinyl-Leu-oxazolone = assay: self-aminoacylation, catalytic enhancement (BLO) (fold over background); higher = more active; k-Seq, kA / k0A0; sequences stand for … in GGGAAUGGAUCCACAUCUACGAAUUC…UUCACUGCAGACUUGACGAAGCUG
Method in brief: as §1

biotinyl-Trp-oxazolone = assay: self-aminoacylation, catalytic enhancement (BWO) (fold over background); higher = more active; k-Seq, kA / k0A0; sequences stand for … in GGGAAUGGAUCCACAUCUACGAAUUC…UUCACUGCAGACUUGACGAAGCUG
Method in brief: as §1

Row | Sequence | self-aminoacylation (biotinyl-Phe-oxazolone) | self-aminoacylation (biotinyl-Ile-oxazolone) | self-aminoacylation (biotinyl-Met-oxazolone) | self-aminoacylation (biotinyl-Val-oxazolone) | self-aminoacylation (biotinyl-Leu-oxazolone) | self-aminoacylation (biotinyl-Trp-oxazolone)
1 | CCACACUUCAAUCAAUCGGUU [Fam1B.1 aminoacylation ribozyme variant] | 7.61 | 1.47 | 1.16 | 1.21 | 1.34 | 5.87
2 | AUUACCCUGGUCAUCGCCUGA [Fam2.1 aminoacylation ribozyme variant] | 14.2 | 2.72 | 2.48 | 3.15 | 3.64 | 3.69
3 | AGUACCCUGGUCUUCGAGUGA [Fam2.1 aminoacylation ribozyme variant] | 31.2 | 3.54 | 5.41 | 3.27 | 5.96 | 7.11
4 | CAACUUCAAGCAAUCGGUCUG [Fam1A.1 aminoacylation ribozyme variant] | 27.2 | 1.54 | 1.59 | 1.39 | 2.26 | 20.5
5 | AUCCACCUAAGUCAUCGGGUG [Fam2.2 aminoacylation ribozyme variant] | 90.6 | 6.14 | 11.3 | 7.25 | 14.4 | 9.42
6 | AUUACCCUGGUCUUCGAGUGA [Fam2.1 aminoacylation ribozyme variant] | 26.4 | 3.09 | 5.36 | 3.3 | 5.52 | 6.84
7 | CUACUUCAAACAAUCGGGAUG [Fam1A.1 aminoacylation ribozyme variant] | 5.85 | 0.904 | 0.844 | 1.02 | 1.19 | 4.46
8 | AUUCACCUAAGUCAUCGAGUG [Fam2.2 aminoacylation ribozyme variant] | 22.9 | 3.92 | 5.75 | 3.78 | 7.69 | 5.16
9 | CCACACUUCAAGUCAUCGGUC [Fam1B.1 aminoacylation ribozyme variant] | 0.991 | 1.05 | 1.04 | 1.32 | 1.31 | 0.698
10 | AUUACCCUUGUCAUCGCGUGA [Fam2.1 aminoacylation ribozyme variant] | 85.5 | 5.26 | 10.7 | 5.9 | 13.6 | 14.3
11 | AUUCACCUUGGACAUCGGGUG [Fam2.2 aminoacylation ribozyme variant] | 17.1 | 2.51 | 3.51 | 3.24 | 3.37 | 2.97
12 | AAGUUUGCUAAUAGUCGUCAG [Fam3.1 aminoacylation ribozyme variant] | 2.16 | 0.795 | 0.638 | 0.905 | 0.715 | 1.26
13 | AUUACCCUCGUCAUCGCGUGA [Fam2.1 aminoacylation ribozyme variant] | 51.9 | 3.63 | 6.01 | 4.02 | 6.51 | 6.81
14 | AUUCACAUAGGUCUUCGGGUG [Fam2.2 aminoacylation ribozyme variant] | 39.4 | 4.26 | 4.21 | 4.59 | 5.35 | 5.51
15 | AAGUAUGCGAAUAGUCGCAAG [Fam3.1 aminoacylation ribozyme variant] | 1.74 | 1.32 | 1.13 | 1 | 1.19 | 0.948
16 | AUUGCCCUGGUCAUUGAGUGA [Fam2.1 aminoacylation ribozyme variant] | 64.3 | 3.72 | 8.44 | 4.2 | 7.3 | 9.51
17 | AUGACCCUGGUAAUCGAGUGA [Fam2.1 aminoacylation ribozyme variant] | 23.9 | 2.7 | 5.08 | 2.8 | 5.39 | 6.37
18 | CUUCUUCAAACACUCGGUCUG [Fam1A.1 aminoacylation ribozyme variant] | 0.651 | 0.938 | 1.04 | 0.977 | 0.791 | 0.901
19 | CCACACUUCAAGCAUGCGGUC [Fam1B.1 aminoacylation ribozyme variant] | 0.814 | 1.41 | 1.57 | 2.27 | 1.62 | 2.22
20 | CUAGUUCAAACAAUCGGUCUC [Fam1A.1 aminoacylation ribozyme variant] | 9.67 | 0.896 | 0.795 | 0.863 | 1.25 | 5.9
21 | CUACUUCAAACAAUCGGUCAA [Fam1A.1 aminoacylation ribozyme variant] | 6.72 | 0.846 | 0.695 | 0.996 | 0.712 | 2.24
22 | UAGUUUGCUUAUAGUCGCAAG [Fam3.1 aminoacylation ribozyme variant] | 2.08 | 1.53 | 1.84 | 1.54 | 1.59 | 1.81
23 | AAUUAUGCUAAUAGUCGCAAG [Fam3.1 aminoacylation ribozyme variant] | 3.25 | 2.21 | 1.46 | 1.65 | 1.81 | 2.57
24 | GCACACGUCAAGCAAUCGGUC [Fam1B.1 aminoacylation ribozyme variant] | 11.5 | 2.63 | 2.47 | 2.85 | 2.18 | 3.95
25 | AUUACCCUGGUAAUCCAGUGA [Fam2.1 aminoacylation ribozyme variant] | 51.9 | 4.07 | 8.47 | 4.36 | 8.77 | 10.7
26 | CUACUUCAAACAUUCCGUCUG [Fam1A.1 aminoacylation ribozyme variant] | 0.631 | 1.15 | 0.79 | 1.2 | 1.19 | 1.22
